B1: Pistol ribozyme (parent)
chain: GGGUCGUUGUUCCAUAAUCGCGUGGAUAUGGCACGCAAGUUUCUACCGGGCACCGUAAAUGUCCGACUGGAGCCGUUCGGGCGGCUAUAAACAGACCUCAGGCCCGAAGCGUGGCGGCACCUGCCGCCGGUGGUAAAAAAGAUCGGAAGAGCACACGUCU

Variants of: B1
Assay: aptazyme ON/OFF ratio, guanine; higher = stronger switching; co-transcriptional cleavage with and without guanine

Point of comparison: U7A U8C U10C U11C C12A, “aptazyme ON/OFF ratio” value 1.14. Against it:
- U7A U8G G9A U10A U11C C12A C13A — higher, 1.32
- U7A U8G G9A U10A U11C C12A C13G — higher, 1.33
- U7A U8G G9A U10A U11C C12A C13U — higher, 1.16
- U7A U8G G9A U10A C12U C13A — higher, 1.38
- U7A U8G G9A U10A C12U C13U — lower, 1.04
- U7A U8G G9A U10A C12U C13G — lower, 1.13
- U7A U8C U11C C12A C13A — higher, 1.44
- U7A U8C U11C C12A C13G — higher, 1.31
- U7A U8C U11C C12A C13U — higher, 1.37
- U7A U8C U10C U11A C12U — higher, 1.19
- U7A U8C U10C U11A C12G — higher, 1.28
- U7A U8C U10C U11A C12A — higher, 1.29
- U7A U8C U10A U11C C12G C13A — lower, 1.08
- U7A U8C U10A U11C C12G C13G — higher, 1.27
- U7A U8C U10A U11C C12G C13U — lower, 1.13
- U7A U8C U11C C12G C13U — higher, 1.5
- U7A U8C U11C C12G C13G — higher, 1.22
- U7A U8C U11C C12G C13A — higher, 1.32
- U7A U8C U10C U11C C12U C13A — lower, 1.06
- U7A U8C U10C U11C C12U C13G — higher, 1.23
- U7A U8C U10C U11C C12U C13U — lower, 1.07
- U7A U8G G9A U10A U11C C12G C13G — lower, 1.08
- U7A U8G G9A U10A U11C C12G C13U — higher, 1.33
- U7A U8G G9A U10A U11C C12G C13A — higher, 1.21
- U7A U8G G9A U10A — higher, 1.4
- U7A U8G G9A U10C — higher, 2.9
- U7A U8C U11A C12G — higher, 1.16
- U7A U8C U11A C12U — higher, 1.23
- U7A U8C U11A C12A — higher, 1.32
- U7A U8C U10G U11C C12G C13U — higher, 1.57
- U7A U8C U10G U11C C12G C13A — higher, 1.45
- U7A U8C U10G U11C C12G C13G — higher, 1.17
- U7A U8C U10A U11A C12U C13A — higher, 1.18
- U7A U8C U10A U11A C12U C13G — higher, 1.33
- U7A U8C U10A U11A C12U C13U — higher, 1.17
- U7A U8G G9A U10A U11G C12A C13G — higher, 1.37
- U7A U8G G9A U10A U11G C12A C13U — higher, 1.4
- U7A U8G G9A U10A U11G C12A C13A — lower, 1.1
- U7A U8G G9A U10A U11A C12U C13A — higher, 1.2
- U7A U8G G9A U10A U11A C12U C13U — lower, 1.07
- U7A U8G G9A U10A U11A C12U C13G — higher, 1.29
- U7A U8G C12U C13A — higher, 1.23
- U7A U8G C12U C13U — higher, 1.53
- U7A U8G C12U C13G — higher, 1.24
- U7A U8C U10G U11A — the same, 1.14
- U7A U8C U10G U11C — higher, 1.74
- U7A U8C U10G U11G — higher, 1.4
- U7A U8C U10C U11C C13U — lower, 1.01
- U7A U8C U10C U11C C13G — higher, 1.17
- U7A U8C U10C U11C C13A — lower, 1.03
- U7A U8C U10G U11G C12U C13A — higher, 1.23
- U7A U8C U10G U11G C12U C13U — higher, 1.24
- U7A U8C U10G U11G C12U C13G — higher, 1.23
- U7A U8G C13A — higher, 1.42
- U7A U8G C13U — higher, 1.2
- U7A U8G C13G — lower, 1.1
- U7A U8C U10C U11C C12A C13U — higher, 1.16
- U7A U8C U10C U11C C12A C13A — lower, 1.09
- U7A U8C U10C U11C C12A C13G — higher, 1.16
- U7A U8G G9A U10A U11A C12A — higher, 1.45
- U7A U8G G9A U10A U11A C12G — higher, 1.46
- U7A U8G G9A U10A U11A C12U — higher, 1.31
- U7A U8C U10C C12G C13A — higher, 1.34
- U7A U8C U10C C12G C13U — higher, 1.41
- U7A U8C U10C C12G C13G — higher, 1.22
- U7A U8G G9A U10A U11A C12A C13U — higher, 1.29
- U7A U8G G9A U10A U11A C12A C13A — higher, 1.3
- U7A U8G G9A U10A U11A C12A C13G — lower, 1.13
- U7A U8G G9A U10A C12G C13U — higher, 1.34
- U7A U8G G9A U10A C12G C13G — higher, 1.33
- U7A U8G G9A U10A C12G C13A — higher, 1.52
- U7A U8C U10G U11A C12G C13U — higher, 1.2
- U7A U8C U10G U11A C12G C13A — higher, 1.18
- U7A U8C U10G U11A C12G C13G — the same, 1.14
- U7A U8C U11G C13G — higher, 1.15
- U7A U8C U11G C13A — lower, 1.12
- U7A U8C U11G C13U — higher, 1.21
- U7A U8C U10A U11A C12G C13A — lower, 1.11
- U7A U8C U10A U11A C12G C13U — higher, 1.28
- U7A U8C U10A U11A C12G C13G — higher, 1.31
- U7A U8G G9A U10A U11C C12U — lower, 1.04
- U7A U8G G9A U10A U11C C12G — higher, 1.37
- U7A U8G G9A U10A U11C C12A — higher, 1.44
- U7A U8C U10G U11A C13G — higher, 1.2
- U7A U8C U10G U11A C13A — lower, 1.12
- U7A U8C U10G U11A C13U — lower, 1.09
- U7A U8C U10G U11G C12A C13A — the same, 1.14
- U7A U8C U10G U11G C12A C13G — higher, 1.15
- U7A U8C U10G U11G C12A C13U — higher, 1.34
- U7A U8C U10G U11G C13U — higher, 1.39
- U7A U8C U10G U11G C13G — higher, 1.2
- U7A U8C U10G U11G C13A — higher, 1.2
- U7A U8C U11A C12A C13G — higher, 1.16
- U7A U8C U11A C12A C13A — higher, 1.2
- U7A U8C U11A C12A C13U — higher, 1.27
- U7A U8G G9A C12U C13U — lower, 1.04
- U7A U8G G9A C12U C13G — higher, 1.23
- U7A U8G G9A C12U C13A — higher, 1.28
- U7A U8C U10G U11A C12U C13G — the same, 1.14
- U7A U8C U10G U11A C12U C13U — higher, 1.2
- U7A U8C U10G U11A C12U C13A — higher, 1.2
- U7A U8C U10C U11A C13U — higher, 1.17
- U7A U8C U10C U11A C13A — higher, 1.15
- U7A U8C U10C U11A C13G — higher, 1.16
- U7A U8C U11G C12G C13A — lower, 1.04
- U7A U8C U11G C12G C13U — lower, 1.11
- U7A U8C U11G C12G C13G — lower, 1.1
- U7A U8C U10A U11G C12A — lower, 1.1
- U7A U8C U10A U11G C12G — higher, 1.32
- U7A U8C U10A U11G C12U — higher, 1.27
- U7A U8C U10C U11G C12G C13A — higher, 1.26
- U7A U8C U10C U11G C12G C13G — higher, 1.24
- U7A U8C U10C U11G C12G C13U — the same, 1.14
- U7A U8C U10G U11C C12A — higher, 2.43
- U7A U8C U10G U11C C12G — higher, 2.72
- U7A U8C U10G U11C C12U — higher, 1.28
- U7A U8C U10A U11G C12G C13U — higher, 1.45
- U7A U8C U10A U11G C12G C13A — higher, 1.36
- U7A U8C U10A U11G C12G C13G — higher, 1.28
- U7A U8C U10G C13G — higher, 1.24
- U7A U8C U10G C13A — higher, 1.4
- U7A U8C U10G C13U — higher, 1.31
- U7A U8C U10C U11C C12G C13U — lower, 1.09
- U7A U8C U10C U11C C12G C13A — lower, 1.12
- U7A U8C U10C U11C C12G C13G — lower, 1.1
- U7A U8C U11G C12U C13G — lower, 1.06
- U7A U8C U11G C12U C13A — lower, 1.08
- U7A U8C U11G C12U C13U — lower, 1.1
- U7A U8C U10C U11G C12U — higher, 1.3
- U7A U8C U10C U11G C12A — higher, 1.2
- U7A U8C U10C U11G C12G — higher, 1.25
- U7A U8G G9A U10A U11G C13G — higher, 1.27
- U7A U8G G9A U10A U11G C13U — lower, 1.09
- U7A U8G G9A U10A U11G C13A — lower, 1.13
- U7A U8G G9A — higher, 3.13
- U7A U8C U11G — higher, 1.37
- U7A U8C U11C — higher, 1.2
- U7A U8C U11A — the same, 1.14
- U7A U8C U10A U11C C12A — lower, 1.09
- U7A U8C U10A U11C C12G — lower, 1.1
- U7A U8C U10A U11C C12U — lower, 1.03
- U7A U8C U10C U11C C12G — higher, 1.19
- U7A U8C U10C U11C C12U — lower, 1.04
- U7A U8C U11A C12G C13G — lower, 1.1
- U7A U8C U11A C12G C13A — lower, 1.06
- U7A U8C U11A C12G C13U — higher, 1.15
- U7A U8C U10A U11A C13G — higher, 1.29
- U7A U8C U10A U11A C13A — higher, 1.2
- U7A U8C U10A U11A C13U — lower, 1.12
- U7A U8C U10C C12U C13A — higher, 1.17
- U7A U8C U10C C12U C13U — higher, 1.38
- U7A U8C U10C C12U C13G — higher, 1.26
- U7A U8C U10A U11A C12U — higher, 1.18
- U7A U8C U10A U11A C12A — higher, 1.17
- U7A U8C U10A U11A C12G — higher, 1.23
- U7A U8G G9A U10A U11G C12U C13A — lower, 1
- U7A U8G G9A U10A U11G C12U C13G — higher, 1.52
- U7A U8G G9A U10A U11G C12U C13U — higher, 1.33
- U7A U8C U10C U11G C12U C13A — higher, 1.28
- U7A U8C U10C U11G C12U C13U — higher, 1.28
- U7A U8C U10C U11G C12U C13G — higher, 1.16
- U7A U8C U10G C12U C13A — higher, 1.21
- U7A U8C U10G C12U C13U — higher, 1.34
- U7A U8C U10G C12U C13G — the same, 1.14
- U7A U8C U10G C12A C13A — lower, 1.13
- U7A U8C U10G C12A C13U — higher, 1.15

Source: the RNAGym collection of RNA variant scans (doi:10.1021/acssynbio.7b00057)
